Results taken from patent US20160159906A1 (Genentech, published 2016).

Columns and labels:
human CD79b [1] = molecular target: T1, human CD79b (human, UniProt P40259 29-229); assay: cell-based or functional assay
T1 sequence: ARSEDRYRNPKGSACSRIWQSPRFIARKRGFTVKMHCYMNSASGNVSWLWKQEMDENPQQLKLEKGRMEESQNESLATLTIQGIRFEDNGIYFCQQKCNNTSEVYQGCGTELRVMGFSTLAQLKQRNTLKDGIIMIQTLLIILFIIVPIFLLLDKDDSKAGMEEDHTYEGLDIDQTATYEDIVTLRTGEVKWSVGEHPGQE

human CD79b [2] = molecular target: T1, human CD79b; assay: FACS on BJAB cells (FIG. 3B); bispecific bisfab, monovalent for CD79b
Experimental: (§1) BJAB cells were incubated with anti-CD79b antibody (bivalent, dual arm antibody) or anti-CD79b/CD3 TDB antibody as indicated for 30 minutes on ice. At the end of the incubation, cells were washed with ice cold FACS buffer (lx PBS, 2% BSA, 2mM EDTA), followed by incubation with PE-labeled mouse anti-human IgG antibody (BD bioscience #555787). Flow cytometry analysis was done on a BD LSR analyzer. Antibody binding was expressed as Mean Fluorescence Intensity (MFI) of PE fluorophore. A: The bivalent binding affinity of anti-CD79b clone 2F2 comparing to monovalent binding affinity of anti-CD79b clones 2F2, SN8v28, and SN8new (as K&H TDBs); B: bivalent binding affinity of anti-CD79b clones CD79b.F6 and CD79b.A7 comparing to monovalent binding of anti-CD79b clones CD79b.F6, CD79b.A7, and SN8v28 (as bisfab or K&H TDBs); C: bivalent binding affinity of anti-CD79b clone CD79b.A7.v14 comparing to monovalent binding of anti-CD79b clone CD79b.A7.v14 (as K&H TDBs).
(§2) The monovalent and bivalent anti-CD79b antibody binding affinity was also evaluated in order to better understand the contribution, if any, to B cell killing activity. Binding affinity of dual arm, bivalent anti-CD79b antibodies and bispecific anti-CD79b/ CD3 antibodies using BJAB cells were also analyzed. […]

human CD79b [3] = molecular target: T1, human CD79b; assay: FACS on BJAB cells, PE-labeled mouse anti-human IgG detection, MFI [panel A]
Experimental: as §1, §2

[4] = molecular target: T2, CD79b.A7, dual arm, bivalent anti-CD79b antibody; assay: FACS on BJAB cells, peptide competition (data not shown)
T2 construct: Mouse hybridoma clone; also called CD79.A7; muCD79b.A7
T2 sequence (VL, as listed by the source): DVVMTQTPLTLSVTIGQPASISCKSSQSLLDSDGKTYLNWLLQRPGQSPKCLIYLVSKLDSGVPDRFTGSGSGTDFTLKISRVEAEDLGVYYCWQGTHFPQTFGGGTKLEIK

human CD79b [5] = molecular target: T1, human CD79b; assay: FACS on BJAB-luciferase cells, bivalent binding, PE anti-human IgG
Experimental: At the end of the incubation, cells were washed with ice cold FACS buffer (1× PBS, 2% BSA, 2 mM EDTA), followed by incubation with PE-labeled mouse anti-human IgG antibody (BD bioscience #555787). Flow cytometry analysis was done on a BD LSR analyzer. Bivalent binding was expressed as Mean Fluorescence Intensity (MFI) of PE fluorophore.

human CD79b [6] = molecular target: T1, human CD79b; assay: FACS on BJAB cells (FIG. 3C)
Experimental: as §1
Binding affinity of the humanized CD79.A7.v14 of monovalent and bivalent was tested as described above.

[7] = molecular target: T3, human CD79b fused with an Fc domain at the C-terminus (printed at paragraph 314 as Human CD79a fused with an Fc … (human, UniProt P40259 29-159)); assay: Biacore T100 SPR, bivalent IgG over CD79b-Fc immobilized at low density; apparent affinity
T3 construct: also called CD79b immobilized at a low density; Fc-tagged ECD of human CD79b; not shown: Fc domain at the C-terminus
T3 sequence: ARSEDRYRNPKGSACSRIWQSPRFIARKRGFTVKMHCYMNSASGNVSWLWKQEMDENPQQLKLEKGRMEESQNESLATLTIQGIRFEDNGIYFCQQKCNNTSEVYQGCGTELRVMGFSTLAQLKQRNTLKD
Experimental: The binding affinity of the antibodies in this section was determined by BIAcore™ T100. Briefly, BIAcore™ research grade CM5 chips were activated with 1-ethyl-3-(3-dimethylaminopropyl) carbodiimide (EDC) and N-hydroxysuccinimide (NHS) reagents according to the supplier's instructions. Human […] fused with an Fc domain at the C-terminus was coupled to the chips. To achieve more monovalent binding events, low density of ˜12 response units (RU) was immobilized in each flow cell. For measuring the apparent affinity of the antibodies, ˜370 RU of the antigen was immobilized. Unreacted coupling groups were blocked with 1M ethanolamine. For kinetics measurements, three-fold serial dilutions of antibody was injected in PBS-T buffer (0.05% surfactant P20 in PBS) at 25° C. with a flow rate of 30 μl/min. 10 mM glycine, pH 1.7 was used as regeneration buffer at 30 ul/min flow rate for 1 minute. Association rates (kₒₙ) and dissociation rates (koff) were calculated using a 1:1 Langmuir binding model (BIAcore™ T100 Evaluation Software version 2.0). The equilibrium dissociation constant (Kd) was calculated as the ratio koff/kₒₙ.
Thus additional humanized variants were made to evaluate the contribution of mouse framework vernier positions towards binding. Six additional light chains (VL1: CDRs graft+(Y36L), VL2: CDRs graft+(Y36L+L46C), VL3: CDRs graft+(I2V+Y36L+L46C), VL4: CDRs graft+(Y36L+L46S), VL5: CDRs graft+(I2V+Y36L+L46S), VL6: CDRs graft+(L46S)) and seven additional heavy chains (VH1a: CDRs graft+(A93S), VH1b: CDRs graft+(R71V+A93S), VH1c: CDRs graft+(V67A+I69L+R71V+A93S), VH1d:CDRs graft+(V67A+I69L+R71V+T73K+A93S), VH1e: CDRs graft+(V67A+R71V+A93S), VH1f: CDRs graft+(I69L+R71V+A93S), and VH1g: CDRs graft+(V67A+I69L)) were constructed and combined to generate the variants in Table 2. Based on the affinities of these variants, Y36L and L46C in the light chain appear to be key mouse vernier residues. […] In the heavy chain, V67A, I69L, R71V and A93S also contributed to CD79b binding; however R71V appeared to be the key mouse vernier residues based on this mutational analysis.

B1: bispecific bisfab anti-CD79b/CD3 (CD79b.A7/UCHT1.v9) (bispecific antibody, V domains shown)
VH 1: QVQLQQPGVELVRPGASVKLSCKASGYTFTTYWMNWVRQRPGQGLDWIGMIDPSDSETHYNQMFKDKATLTVDKSSSTAYIQLNSLTSEDSAVYYCSRSLAFWGQGTLVTVSA
VL 1: not shown
VH 2: EVQLVESGGGLVQPGGSLRLSCAASGYSFTGYTMNWVRQAPGKDLEWVALINPYKGVSTYNQKFKDRFTISVDKSKNTAYLQMNSLRAEDTAVYYCARSGYYGDSDWYFDVWGQGTLVTVSS
VL 2: DIQMTQSPSSLSASVGDRVTITCRASQDIRNYLNWYQQKPGKAPKLLIYYTSRLESGVPSRFSGSGSGTDYTLTISSLQPEDFATYYCQQGNTLPWTFGQGTKLELK
notes: Bisfab format; constant parts and the link between the two Fabs are not described; also called CD79b.A7/UHT1.v9
B1 was tested, and the “endogenous B cell killing EC50” value (human CD79b [1]) was 0.012 µg/mL and the EC50 (human CD79b [2]) was 1.4 µg/mL.

B2: SN8.new/UCHT1.v9 bispecific K&H antibody (bispecific antibody, V domains shown)
VH 1: EVQLVESGGGLVQPGGSLRLSCAASGYTFSSYWIEWVRQAPGKGLEWVGEILPGGGDTNYNEIFKGRFTISADTSKNTAYLQMNSLRAEDTAVYYCTRRVPIRLDYWGQGTLVTVSS
VL 1: DIQMTQSPSSLSASVGDRVTITCKASQSVDYDGDSFLNWYQQKPGKAPKLLIYAARKLGRGVPSRFSGSGSGTDFTLTISSLQPEDFATYYCQQSNEDPLTFGQGTKVEIK
VH 2: EVQLVESGGGLVQPGGSLRLSCAASGYSFTGYTMNWVRQAPGKDLEWVALINPYKGVSTYNQKFKDRFTISVDKSKNTAYLQMNSLRAEDTAVYYCARSGYYGDSDWYFDVWGQGTLVTVSS
VL 2: DIQMTQSPSSLSASVGDRVTITCRASQDIRNYLNWYQQKPGKAPKLLIYYTSRLESGVPSRFSGSGSGTDYTLTISSLQPEDFATYYCQQGNTLPWTFGQGTKLELK
B2 was tested, and the “EC50 (read off the curve)” value (human CD79b [3]) was roughly 1 µg/mL.

ARSEDRYRNPKGSACSRIWQS: binds [4].

B3: CD79b.A7.v14 (antibody, V domains shown)
VH: EVQLVQSGAEVKKPGASVKVSCKASGYTFTTYWMNWVRQAPGQGLEWIGMIDPSDSETHYNQMFKDRATLTVDTSTSTAYLELSSLRSEDTAVYYCSRSLAFWGQGTLVTVSS
VL: DIVMTQTPLSLPVTPGQPASISCKSSQSLLDSDGKTYLNWLLQKPGQSPQSLIYLVSKLDSGVPDRFSGSGSGTDFTLKISRVEAEDVGVYYCWQGTHFPQTFGQGTKVEIK
notes: VH1c + VL4; bivalent, dual arm IgG; also called huCD79b.A7.v14; CD79.A7.v14
Work on B3 yielded an EC50 (human CD79b [5]) of 0.068 µg/mL, an EC50 (human CD79b [6]) of 0.0468 µg/mL and a Kd [7] of 5 nM.

B4: CD79b.A7.v15 (antibody, V domains shown)
VH: EVQLVQSGAEVKKPGASVKVSCKASGYTFTTYWMNWVRQAPGQGLEWIGMIDPSDSETHYNQMFKDRATLTVDTSTSTAYLELSSLRSEDTAVYYCSRSLAFWGQGTLVTVSS
VL: DVVMTQTPLSLPVTPGQPASISCKSSQSLLDSDGKTYLNWLLQKPGQSPQSLIYLVSKLDSGVPDRFSGSGSGTDFTLKISRVEAEDVGVYYCWQGTHFPQTFGQGTKVEIK
notes: VH1c + VL5; assessed as IgG
B4 showed a Kd [7] of 5 nM.

B5: CD79b.A7.v18 (antibody, V domains shown)
VH: EVQLVQSGAEVKKPGASVKVSCKASGYTFTTYWMNWVRQAPGQGLEWIGMIDPSDSETHYNQMFKDRATLTVDKSTSTAYLELSSLRSEDTAVYYCSRSLAFWGQGTLVTVSS
VL: DIVMTQTPLSLPVTPGQPASISCKSSQSLLDSDGKTYLNWLLQKPGQSPQSLIYLVSKLDSGVPDRFSGSGSGTDFTLKISRVEAEDVGVYYCWQGTHFPQTFGQGTKVEIK
notes: VH1d + VL4; assessed as IgG
Binder B5 has a Kd [7] of 4 nM.

B6: CD79b.A7.v19 (antibody, V domains shown)
VH: EVQLVQSGAEVKKPGASVKVSCKASGYTFTTYWMNWVRQAPGQGLEWIGMIDPSDSETHYNQMFKDRATLTVDKSTSTAYLELSSLRSEDTAVYYCSRSLAFWGQGTLVTVSS
VL: DVVMTQTPLSLPVTPGQPASISCKSSQSLLDSDGKTYLNWLLQKPGQSPQSLIYLVSKLDSGVPDRFSGSGSGTDFTLKISRVEAEDVGVYYCWQGTHFPQTFGQGTKVEIK
notes: VH1d + VL5; assessed as IgG
With B6 the Kd [7] was 4 nM.

B7: CD79b.A7.v20 (antibody, V domains shown)
VH: EVQLVQSGAEVKKPGASVKVSCKASGYTFTTYWMNWVRQAPGQGLEWIGMIDPSDSETHYNQMFKDRATITVDTSTSTAYLELSSLRSEDTAVYYCSRSLAFWGQGTLVTVSS
VL: DIVMTQTPLSLPVTPGQPASISCKSSQSLLDSDGKTYLNWLLQKPGQSPQSLIYLVSKLDSGVPDRFSGSGSGTDFTLKISRVEAEDVGVYYCWQGTHFPQTFGQGTKVEIK
notes: VH1e + VL4; assessed as IgG
Work on B7 yielded a Kd [7] of 8 nM.

B8: CD79b.A7.v21 (antibody, V domains shown)
VH: EVQLVQSGAEVKKPGASVKVSCKASGYTFTTYWMNWVRQAPGQGLEWIGMIDPSDSETHYNQMFKDRVTLTVDTSTSTAYLELSSLRSEDTAVYYCSRSLAFWGQGTLVTVSS
VL: DIVMTQTPLSLPVTPGQPASISCKSSQSLLDSDGKTYLNWLLQKPGQSPQSLIYLVSKLDSGVPDRFSGSGSGTDFTLKISRVEAEDVGVYYCWQGTHFPQTFGQGTKVEIK
notes: VH1f + VL4; assessed as IgG
In the case of B8, the Kd [7] is reported as 8 nM.

B9: chCD79b.A7 (antibody, V domains shown)
VH: QVQLQQPGVELVRPGASVKLSCKASGYTFTTYWMNWVRQRPGQGLDWIGMIDPSDSETHYNQMFKDKATLTVDKSSSTAYIQLNSLTSEDSAVYYCSRSLAFWGQGTLVTVSA
VL: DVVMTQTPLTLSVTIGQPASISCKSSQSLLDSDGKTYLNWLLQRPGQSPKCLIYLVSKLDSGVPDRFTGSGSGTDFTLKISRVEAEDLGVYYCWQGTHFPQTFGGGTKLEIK
notes: Chimeric form of CD79b.A7 by its prefix ch
For B9, the EC50 (human CD79b [5]) was 0.124 µg/mL.

B10: monovalent CD79.A7.v14 in the K&H TDB format CD79.A7.v14/40G5c (bispecific antibody, V domains shown)
VH 1: EVQLVQSGAEVKKPGASVKVSCKASGYTFTTYWMNWVRQAPGQGLEWIGMIDPSDSETHYNQMFKDRATLTVDTSTSTAYLELSSLRSEDTAVYYCSRSLAFWGQGTLVTVSS
VL 1: DIVMTQTPLSLPVTPGQPASISCKSSQSLLDSDGKTYLNWLLQKPGQSPQSLIYLVSKLDSGVPDRFSGSGSGTDFTLKISRVEAEDVGVYYCWQGTHFPQTFGQGTKVEIK
VH 2: EVQLVQSGAEVKKPGASVKVSCKASGYTFTNYYIHWVRQAPGQGLEWIGWIYPGDGNTKYNEKFKGRATLTADTSTSTAYLELSSLRSEDTAVYYCARDSYSNYYFDYWGQGTLVTVSS
VL 2: DIVMTQSPDSLAVSLGERATINCKSSQSLLNSRTRKNYLAWYQQKPGQPPKLLIYWASTRESGVPDRFSGSGSGTDFTLTISSLQAEDVAVYYCTQSFILRTFGQGTKVEIK
notes: also called CD79b.A7.v14/40G5c K&H
B10 showed an EC50 (human CD79b [6]) of 0.22 µg/mL.
